From article PMC4165587, “Comparison of the Structure and Function of Phospholamban and the Arginine-14 Deficient Mutant Associated with Dilated Cardiomyopathy” (PLoS ONE, 2014)

Target: the molecule itself
Assay: SDS-PAGE; recombinant PLB in isolation, solubilised in LDS sample buffer; 4-12% Bolt Bis-Tris Plus gel, MES SDS running buffer; Coomassie stain

Row | Protein | stoichiometry N
1 | wild type phospholamban (PLBWT), full length, recombinant (natural protein, human, UniProt P26678 1-52, looked up, phospholamban, human, 52 amino acids, full length, non-acetylated; Untagged after TEV cleavage; also called Rec WT; source: E. coli C41(DE3), MBP fusion (pMAL c2X), purified on amylose, cleaved with TEV protease, chloroform/methanol extraction; not shown: MBP, N-terminal, cleaved) MEKVQYLTRSAIRRASTIEMPQQARQKLQNLFINFCLILICLLLICIIVMLL | 5
2 | phospholamban with a deletion of arginine at position 14 (PLBR14Δ), full length, recombinant (natural protein, human, UniProt P26678 1-52, looked up, phospholamban, human, full length, non-acetylated, with the deletion of Arg14 that is associated with human dilated cardiomyopathy; Made from the human PLBWT DNA by site-directed ligase-independent mutagenesis; A synthetic full-length PLBR14Δ was also bought (Activotec), but the experiments written here name the recombinant protein; also called Rec R14Δ; PLBR14D; source: E. coli C41(DE3), MBP …) MEKVQYLTRSAIRASTIEMPQQARQKLQNLFINFCLILICLLLICIIVMLL | 5
